System: MS2 coat protein
Assay: apparent KD of MS2 coat protein; designed switch direction (-1 OFF switch, 1 ON switch): -1; higher = weaker reporter binding
Procedure, shortened: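 The apparent KD reported per design is the median over clusters of curve fits to normalised cluster fluorescence. The RNA switches were transcribed on Illumina chips by stalled E. coli RNA polymerase. SNAP-549-labelled MS2 coat protein was titrated from 0.7 or 1.5 nM, doubling up to 3 µM, in Tris-HCl pH 7.5 buffer containing KCl, MgCl2, BSA, DTT, tRNA and Tween-20, with no input, 200 uM small-molecule ligand, or an oligonucleotide input.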

[1] = Eterna round: R95, input ligand: FMN 200 uM
[2] = Eterna round: R95, input ligand: microRNA oligo, concentration not stated
[3] = Eterna round: R95, input ligand: none
[4] = input ligand: microRNA oligo, concentration not stated

| Sequence | apparent KD of MS2 coat protein [1] | apparent KD of MS2 coat protein [2] | apparent KD of MS2 coat protein [3] | apparent KD of MS2 coat protein (input ligand: FMN 200 uM) | apparent KD of MS2 coat protein [4] | apparent KD of MS2 coat protein (input ligand: none) |
| --- | --- | --- | --- | --- | --- | --- |
| ACGUAACGAGCUUGAUCCAACAUGAGGAUCACCCAUGUGCUCGUCUUAUAACGUACUGUCACGUUAGUGAUAGUGCG [Sensor v3, turn-off variant 1 (MOD of Eli's v1-13 v.5)] (puzzle: Sensor v3, turn-off variant 1) | 971 nM | 369 nM | 1190 nM | – | – | – |
| ACGUGAUAUCUGUCGGUGGACAUGAGGAUCACCCAUGUAAGCUUCUUGCUCGUCUUAUAACCCGGUGACAGACCUUC [Zalaso] (puzzle: Sensor v3, turn-off variant 1) | 42.8 nM | 449 nM | 47 nM | – | – | – |
| ACGUGAUAUCUGUCGGUGGACAUGAGGAUCACCCAUGUAAGCUUUUUGCUCGUCUUAUAACCCGGUGACAGACCUUC [Tixeed] (puzzle: Sensor v3, turn-off variant 1) | 33.7 nM | 268 nM | 37.3 nM | – | – | – |
| ACUAAAUAAACAAGCAAUAAUCCAUCGUCUUAUACUAAAACAUGAGGAUCACCCAUGUAACAGGUGGUGUUAAAUAA [JR_Sensorv2_tov2_Sub1202] (Eterna round: R96, puzzle: Sensor v2, turn-off variant 2) | – | – | – | 15.4 nM | 40.6 nM | 19.1 nM |
| ACUAGAUGAGGAUAUGCAUGUUUUCAUGUUCUUCUAGAUUAACAUGAGGAUCACCCAUGUAGAAGGCGUCUUAU [Exclusion 2 - 30] (puzzle: Exclusion 2) | – | 18.4 nM | – | – | – | – |
| ACUAUCAGAUUCUUAGGGUACAUGAGGAUCACCCAUGUGUACGUCUACGAGGGUUCGAAAAUCAAGCUCCGCUCGUC [Eternabot (L2) Solution 19] (Eterna round: R97, puzzle: Sensor, turn-off variant 1) | – | – | – | 99.2 nM | – | 91.8 nM |
| ACUCAACAGUAGGAUAUCAUCAAACUAUUGUGAUGAGAAGGACUGACAUGAGGAUCACCCAUGUUAACGUGAAG [Mod of Brourd 3 - Jieux - Exclusion 6] (Eterna round: R97, puzzle: Exclusion 6) | – | – | – | 41.8 nM | – | 28.4 nM |
| ACUCUUCUUGUUAGGAUAUGCAUCGGGCUUCCGCAGCAGAAGGAACAUGAGGAUCACCCAUGUCAAAUAAAAUC (Eterna round: R97, puzzle: Brourd's mod of Exclusion 4) | – | – | – | 141 nM | – | 20.8 nM |
| ACUGAACAUGAGGAUCACCCAUGUAAGGAUAUGCCACACGGGCUACAUAGCCAUCAAAGUAGAAGGUGCUGGGA [Eternabot (Original) Solution 15] (Eterna round: R97, puzzle: Exclusion 1) | – | – | – | 20.3 nM | – | 26.2 nM |
| ACUGUGACGUAGGAUAUCUCCUAAUUGCGCCGGAGAGAAGGACGUACAUGAGGAUCACCCAUGUGCCCUCGGAA [EX6 B.13] (Eterna round: R97, puzzle: Exclusion 6) | – | – | – | 300 nM | – | 56.4 nM |
| ACUUACUGAGGAUAUACAUAGAUUUACAUGAGGAUCACCCAUGUUCCUCUAUGUAUAUAUGUAGAAGGCAGAAGAG [Mat - Exclusion 5 - JL Mod - D35] (Eterna round: R97, puzzle: Exclusion 5) | – | – | – | 56.3 nM | – | 21.6 nM |
| ACUUACUGAGGAUAUACAUAGAUUUACAUGAGGAUCACCCAUGUUCCUCUAUGUAUAUAUGUAGAAGGCAGAAGAU [Mat - Exclusion 5 - JL Mod - D34] (Eterna round: R97, puzzle: Exclusion 5) | – | – | – | 56.9 nM | – | 18.9 nM |
| ACUUACUGAGGAUAUACUUAGAUUUACAUGAGGAUCACCCAUGUUCCUCUAUGUAUAUAUGUAGAAGGCAGAAGAA [JL-ex5-4.35 Malcolm mod] (Eterna round: R97, puzzle: Exclusion 5) | – | – | – | 120 nM | – | 23.7 nM |
| ACUUGUGUUGAGGAUAUGCGCCGGCUCGCUGGCGCAGAAGGCGGCACAUGAGGAUCACCCAUGUCAGUUCGCGC [salish99_ex6_r004_001] (Eterna round: R97, puzzle: Exclusion 6) | – | – | – | 138 nM | – | 16.8 nM |
| AGAAAGCAAGGAUAUACAAGGAAACGACGGAAAGUAGAGAGACAUGAGGAUCACCCAUGUAGAAGGUGCGAGAG [JR_Exclu2_Sub033] (puzzle: Exclusion 2) | 32.1 nM | 24.5 nM | 29.1 nM | – | – | – |
| AGAAAGGCAGGAUAUCGAUAAUAAAACAUGAGGAUCACCCAUGUGAGGCCGCGUGUAACUCGAGAAGGGCUACACG [Biarquma] (puzzle: Exclusion 5) | 16.1 nM | 16.6 nM | 15.4 nM | – | – | – |
| AGAAAUGCCCAUGACCGCAAGCUUUUUGCUUGUCUUACCACAUGAGGAUCACCCAUGUGACAUGGGCUCCUGAUAAU [Onlaleti] (puzzle: Sensor v3, turn-off variant 2) | 14.7 nM | 11.4 nM | 12.3 nM | – | – | – |
| AGAAAUGCCCAUGGCCACAAGCUUUUUGCUUGCCUUACCACAUGAGGAUCACCCAUGUGACAUGGGCUCCUUAUAAU [Teoredale] (puzzle: Sensor v3, turn-off variant 2) | 15.3 nM | 13.1 nM | 14 nM | – | – | – |
| AGAAAUGCCCAUGGCCGCAAGCUUCUUGCUUGUCUUACCACAUGAGGAUCACCCAUGUGACAUGGGCUCCUUAUAAU [Xeceenqu] (puzzle: Sensor v3, turn-off variant 2) | 12.5 nM | 9.59 nM | 11.3 nM | – | – | – |
| AGAAAUUCAAGAGGAUAUCACAUGAGGAUCACCCAUGUAUAGCGCGCUACGCUAGUCCUCGUAUUUGAGAAGGUUUGAUAAAAG [Mat - Exclusion NG 2 - Mod of JL - D77] (Eterna round: R96, puzzle: Exclusion NG 2) | – | – | – | 14.3 nM | 14.3 nM | 15.7 nM |
| AGAACACAUGAGGAUCACCCAUGUCAGGAUAUCGACUGAACAGCUUCGGCUGUUCAGUCGAGAAGGGACAAUUA [Brourdxlusion 6 - Jieux - Exclusion 1] (Eterna round: R97, puzzle: Exclusion 1) | – | – | – | 120 nM | – | 55.8 nM |
| AGAAUGGUACAGGAUAUAGCAUCUAACUGCAUGCUAGAAGGGUAUACAUGAGGAUCACCCAUGUAGUCGUGGAU [Eternabot (L1) Solution 13] (Eterna round: R97, puzzle: Exclusion 6) | – | – | – | 55.2 nM | – | 37.4 nM |
| AGAAUUGCCCAUGGCCGCAAGCUUUUUGCUUGUCUUACCACAUGAGGAUCACCCAUGUGACAUGGGCUCCUUAUAAU [Anargees] (puzzle: Sensor v3, turn-off variant 2) | 13.9 nM | 9.32 nM | 11.8 nM | – | – | – |
| AGACAGUCAGGAUAUACAUGAGGAUCACCCAUGUUGAGAUGAGAAAGGGCAGGAAUAGGUAGAAGGGACGAGAG [JR_Exclu3_Sub037] (puzzle: Exclusion 3) | 30.5 nM | 20.1 nM | 26.2 nM | – | – | – |
| AGACAGUCAGGAUAUACAUGAGGAUCACCCAUGUUGAGAUGUGAAAGGGCGGGAGUAGGUAGAAGGGACGAGAG [JR_Exclu3_Sub039] (puzzle: Exclusion 3) | 27.3 nM | 26.7 nM | 37.5 nM | – | – | – |
| AGACAUGAGGAUCACCCAUGUAGUGGUCCUGGUACGCGAACGUAGGAUAUAUACUGGAUUCCAAUGUAGAAGGACGACACCGCG [Tetege] (Eterna round: R96, puzzle: Exclusion NG 3) | – | – | – | 90 nM | 112 nM | 149 nM |
| AGACUUAUAGGAUAUACAUGAGGAUCACCCAUGUCGCCAGGCGGUAGCAGAGUCUUUUGUAGAAGGAUGACAAC [Eternabot (Original) Solution 35] (Eterna round: R97, puzzle: Exclusion 3) | – | – | – | 20.6 nM | – | 21.2 nM |
| AGAGACAAUCUAGGAUAUGUGUAUGAAGAGUGCGCAGAAGGAGACAUGAGGAUCACCCAUGUACAGCGACAGAAGACGACAACC [Matt's Exclusion 2] (Eterna round: R96, puzzle: Exclusion NG 1) | – | – | – | 14.4 nM | 36.2 nM | 17.5 nM |
| AGAGAGAUAGGAUAUACGUGGUUUUCUCAGGUCUAAGUUCAACAUGAGGAUCACCCAUGUAGAAGGAUCAAAAG [EX2 C.14] (Eterna round: R97, puzzle: Exclusion 2) | – | – | – | 690 nM | – | 156 nM |

From the supplement of paper PMC9170038
